Results from US20250320281A1.

Assays:
Assay in all cases: cell-based or functional assay
[1] = target: HIV-1 APV13 Env (pseudovirus) (HIV-1)
[2] = target: HIV-1 Env of isolate MGRM-AE-002 (subtype AE) (HIV-1)
[3] = target: HIV-1 Env of isolate MGRM-G-004 (HIV-1)
[4] = target: HIV-1 Env of isolate MGRM-G-017 (HIV-1)
[5] = target: HIV-1 MGRM-AG-005 Env (pseudovirus) (HIV-1)
[6] = target: HIV-1 Env of isolate 92WR026 (HIV-1)
[7] = target: HIV-1 Env of isolate 93TH305 (HIV-1)
[8] = target: HIV-1 Env of isolate APV-13 (HIV-1)
[9] = target: HIV-1 Env of isolate MG RM-D-021 (HIV-1)
[10] = target: HIV-1 Env of isolate MGRM-A-002 (HIV-1)
[11] = target: HIV-1 Env of isolate MGRM-A-005 (HIV-1)
[12] = target: HIV-1 Env of isolate MGRM-A-009 (subtype A) (HIV-1)
[13] = target: HIV-1 Env of isolate MGRM-Chronic-B-024 (subtype B) (HIV-1)
[14] = target: HIV-1 Env of isolate SF162 (subtype B) (HIV-1) (UniProt P19550)
[15] = target: HIV-1 envelope glycoprotein (Env) of isolate MGRM-C-007 (HIV-1)
[16] = target: HIV-1 envelope glycoprotein (Env) of isolate MGRM-C-015 (HIV-1)
[17] = target: HIV-1 envelope glycoprotein (Env) of isolate MGRM-C-026 (HIV-1)
[18] = target: HIV-1 Env of isolate MGRM-F1-013 (HIV-1)
[19] = target: HIV-1 Env of isolate MGRM-F1-016 (HIV-1)
[20] = target: HIV-1 APV13 Env (pseudovirus, clade B) (HIV-1)
[21] = target: HIV-1 Env of isolate 92RW021 (clade A pseudovirus) (HIV-1)
[22] = target: HIV-1 Env of isolate LAVIC_18 (HIV-1)
[23] = target: HIV-1 Env of isolate TRO.11 (Acute), clade B, on pseudovirus (HIV-1)
[24] = target: HIV-1 Env of pseudovirus MGRM-AE-001 (clade CRF01_AE) (HIV-1)
[25] = target: HIV-1 Env of pseudovirus MGRM-AE-008 (clade CRF01_AE) (HIV-1)
[26] = target: HIV-1 Env of pseudovirus MGRM-AG-011 (clade CRF_AG) (HIV-1)
[27] = target: HIV-1 Env of pseudovirus MGRM-AG-013 (clade CRF_AG) (HIV-1)
[28] = target: HIV-1 Env of pseudovirus MGRM-F1-006 (HIV-1)
[29] = target: HIV-1 Env of pseudovirus MGRM-F1-010 (HIV-1)
[30] = target: HIV-1 Env of pseudovirus MGRM-G-019 (HIV-1, clade G isolate MGRM-G-019)
[31] = target: HIV-1 envelope glycoprotein (Env) of isolate 92RW009, clade A (HIV-1)
[32] = target: HIV-1 envelope glycoprotein (Env) of isolate 92UG031, clade A (HIV-1)

4995_E20 (PGT-142) (antibody), sequence (VH): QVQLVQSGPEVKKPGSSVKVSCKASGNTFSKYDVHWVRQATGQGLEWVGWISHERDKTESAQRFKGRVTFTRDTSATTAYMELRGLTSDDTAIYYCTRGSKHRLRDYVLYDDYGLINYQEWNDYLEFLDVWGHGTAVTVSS
4995_E20 (PGT-142) (antibody), sequence (VL): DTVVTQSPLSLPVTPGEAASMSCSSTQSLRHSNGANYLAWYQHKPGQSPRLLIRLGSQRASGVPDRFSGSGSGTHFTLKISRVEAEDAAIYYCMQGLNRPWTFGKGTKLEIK
4980_N08 (PGT-143) (antibody), sequence (VH): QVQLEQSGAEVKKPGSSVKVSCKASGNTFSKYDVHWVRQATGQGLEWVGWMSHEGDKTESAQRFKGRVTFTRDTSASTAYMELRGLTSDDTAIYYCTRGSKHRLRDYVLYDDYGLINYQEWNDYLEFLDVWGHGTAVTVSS
4980_N08 (PGT-143) (antibody), sequence (VL): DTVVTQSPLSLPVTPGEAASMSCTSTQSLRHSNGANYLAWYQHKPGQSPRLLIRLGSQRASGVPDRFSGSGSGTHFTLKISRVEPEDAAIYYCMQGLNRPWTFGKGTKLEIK
5329_C19 (PGT-136) (antibody), sequence (VH): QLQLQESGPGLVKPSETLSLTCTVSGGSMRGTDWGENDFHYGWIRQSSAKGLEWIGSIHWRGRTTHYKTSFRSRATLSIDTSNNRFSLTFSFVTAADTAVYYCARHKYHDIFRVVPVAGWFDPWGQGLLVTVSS
5329_C19 (PGT-136) (antibody), sequence (VL): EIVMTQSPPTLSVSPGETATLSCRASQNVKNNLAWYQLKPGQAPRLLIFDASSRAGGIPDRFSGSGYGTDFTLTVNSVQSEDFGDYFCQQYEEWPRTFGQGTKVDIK
4970_K22 (PGT-144) (antibody), sequence (VH): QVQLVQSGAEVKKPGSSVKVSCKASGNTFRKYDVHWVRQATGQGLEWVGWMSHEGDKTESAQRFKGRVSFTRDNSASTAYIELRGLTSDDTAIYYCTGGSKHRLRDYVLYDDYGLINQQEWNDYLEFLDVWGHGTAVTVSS
4970_K22 (PGT-144) (antibody), sequence (VL): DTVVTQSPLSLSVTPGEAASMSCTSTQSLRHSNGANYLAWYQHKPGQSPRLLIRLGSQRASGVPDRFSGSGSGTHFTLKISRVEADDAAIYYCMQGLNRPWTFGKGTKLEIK

Substance: 4980_N08 (PGT-143) (antibody)
- IC50 (neutralizing activity, pseudovirus) [1]: > 10 µg/mL
- IC50 (µg/mL), pseudovirus neutralization [2]: > 50 µg/mL
- IC50 (µg/mL), pseudovirus neutralization [3]: > 50 µg/mL
- IC50 (µg/mL), pseudovirus neutralization [4]: 0.107 µg/mL
- IC50 (neutralizing activity, pseudovirus) [5]: 0.244 µg/mL

Substance: 4995_E20 (PGT-142) (antibody)
- IC50 (neutralizing activity, pseudovirus) [1]: > 10 µg/mL
- IC50 (µg/mL), pseudovirus neutralization [2]: > 50 µg/mL
- IC50 (µg/mL), pseudovirus neutralization [3]: > 50 µg/mL
- IC50 (µg/mL), pseudovirus neutralization [4]: 0.125 µg/mL
- IC50 (neutralizing activity, pseudovirus) [5]: 0.22 µg/mL

Substance: 5114_A19 (PGT-128) (antibody)
- IC50 [6]: 0.01 µg/mL
- neutralization IC50 [7]: 0.006 µg/mL
- neutralization IC50 [8]: 0.008 µg/mL
- IC50 (µg/mL), pseudovirus neutralization [9]: 0.014 µg/mL
- IC50 [10]: 0.149 µg/mL
- IC50 [11]: > 50 µg/mL
- IC50 (µg/mL), pseudovirus neutralization [12]: 0.005 µg/mL
- IC50 (µg/mL), pseudovirus neutralization [2]: 0.522 µg/mL
- IC50 neutralization [13]: > 50 µg/mL
- IC50 neutralization [14]: 0.007 µg/mL
- IC50 (µg/mL), pseudovirus neutralization [15]: 0.111 µg/mL
- IC50 (µg/mL), pseudovirus neutralization [16]: 0.196 µg/mL
- IC50 (µg/mL), pseudovirus neutralization [17]: 0.007 µg/mL

Substance: VRC01 (antibody)
- IC50 [9]: 33.4 µg/mL
- IC50 (µg/mL), pseudovirus neutralization [2]: 0.217 µg/mL
- IC50 [18]: 0.17 µg/mL
- IC50 [19]: 0.517 µg/mL
- IC50 (µg/mL), pseudovirus neutralization [3]: > 50 µg/mL
- IC50 (µg/mL), pseudovirus neutralization [4]: 0.124 µg/mL

Substance: PGV04 (antibody)
- IC50 (µg/mL), pseudovirus neutralization [7]: 0.255 µg/mL
- IC50 (µg/mL), pseudovirus neutralization [3]: > 50 µg/mL
- IC50 (µg/mL), pseudovirus neutralization [4]: 0.065 µg/mL

Substance: 4970_K22 (PGT-144) (antibody)
- IC50 (neutralizing activity, pseudovirus) [1]: > 10 µg/mL
- IC50 (µg/mL), pseudovirus neutralization [2]: > 50 µg/mL
- IC50 (µg/mL), pseudovirus neutralization [3]: > 50 µg/mL
- IC50 (µg/mL), pseudovirus neutralization [4]: 9.97 µg/mL
- IC50 (neutralizing activity, pseudovirus) [5]: > 10 µg/mL

Substance: 5329_C19 (PGT-136) (antibody)
- IC50 (neutralizing activity, pseudovirus) [1]: > 10 µg/mL
- IC50 neutralization [20]: > 10 µg/mL
- IC50 [6]: > 50 µg/mL
- neutralization IC50 [7]: 20.2 µg/mL
- neutralization IC50 [8]: > 50 µg/mL
- IC50 (µg/mL), pseudovirus neutralization [9]: > 50 µg/mL
- IC50 [10]: > 50 µg/mL
- IC50 [11]: > 50 µg/mL
- IC50 (µg/mL), pseudovirus neutralization [12]: > 50 µg/mL
- IC50 (µg/mL), pseudovirus neutralization [2]: > 50 µg/mL
- IC50 neutralization [13]: > 50 µg/mL
- IC50 neutralization [14]: 0.482 µg/mL
- IC50 (neutralizing activity, pseudovirus) [5]: > 10 µg/mL
- IC50 (µg/mL), pseudovirus neutralization [15]: > 50 µg/mL
- IC50 (µg/mL), pseudovirus neutralization [16]: 11.1 µg/mL
- IC50 (µg/mL), pseudovirus neutralization [17]: 0.006 µg/mL

Substance: 1496_C09 (PG9) (TCN-109) (antibody)
- IC50 (µg/ml), pseudovirus neutralization [21]: 0.05 µg/mL
- IC50 (µg/mL), pseudovirus neutralization [7]: 8.12 µg/mL
- IC50 [22]: 0.1 µg/mL
- IC50 (µg/mL), pseudovirus neutralization [4]: 0.104 µg/mL
- IC50 (µg/ml), pseudovirus neutralization [23]: 5.43 µg/mL
- IC50 [24]: 2.97 µg/mL
- IC50 [25]: 10.6 µg/mL
- IC50 [26]: 0.01 µg/mL
- IC50 [27]: 0.23 µg/mL
- IC50 (µg/ml), pseudovirus neutralization [28]: 1.45 µg/mL
- IC50 (µg/ml), pseudovirus neutralization [29]: 0.03 µg/mL
- IC50 (µg/ml), pseudovirus neutralization [30]: 0.67 µg/mL
- IC50 (µg/ml), pseudovirus neutralization [31]: 0.03 µg/mL
- IC50 (µg/ml), pseudovirus neutralization [32]: 3.08 µg/mL
